This experiment deals with specific HAs not engaged in ELISA (soluble HA ectodomains) (influenza virus). In words: ELISA. A general note: In an ELISA, binding on a coated surface is turned into a signal by an enzyme label.

As for CR8071, the Kd amounted to 0.35 nM.

By Kd is commonly meant the concentration at which binding is half-saturated. The low end stands for higher affinity, the high end for lower affinity.
